“Also recorded” adds a separate entry of the source.
Experiments:
[1] = tested on: YUMM mouse melanoma tumor; experiment: anti-PD1 resistant YUMM melanoma engrafted into immunocompetent C57B6 mice; type: in vivo; settings: qPCR
Method: Experiments were conducted to assess the synergism between anti-RNLS antibody and anti-PD1 antibody against a tumor cell line that is resistant to anti-PD1 agents (i.e., YUMM) (FIG. 35). The anti-PD1 resistant mouse melanoma cell line (YUMM) was engrafted into immunocompetent C57B6 mice. After the engrafted YUMM tumor volume reached about 100 mm^3 (i.e., day 0), treatments were administered on days 0, 7, 9, and 12, as indicated by the arrows on […].
Experiments were conducted to measure PD1 and PD-L1 mRNA expression by qPCR in unfractioned tumor mass after treatment with anti-RNLS antibody (m28) alone, anti-PD1 antibody alone, and the combination of anti-RNLS antibody (m28) and anti-PD1 antibody (FIG. 36).
Experiments were conducted to measure CD8a mRNA expression by qPCR in unfractioned tumor mass after treatment with anti-RNLS antibody (m28) alone, anti-PD1 antibody alone, and the combination of anti-RNLS antibody (m28) and anti-PD1 antibody.

A375.S2 xenograft tumors = type: in vivo
Method: Briefly, tumor tissues were formalin-fixed, paraffin-embedded and cut into 5-m sections on glass slides. The slides were de-paraffinized and hydrated, followed by antigen retrieval in a pressure cooker containing 10 mM sodium citrate, pH6 buffer. The sections were blocked in 3% hydrogen peroxide for 30 min and 2.5% normal horse serum in PBS/0.1% Tween20 for 1 h followed by incubation with primary antibody and isotype control IgG overnight at 4° C. The following antibodies were used in this study: m28-RNLS at 500 ng/ml; goat polyclonal anti-RNLS at 250 ng/ml (Abcam, ab31291); rabbit monoclonal anti-CD68 (BDBioscience, 1:100); rabbit monoclonal anti-CD163 (AbD Serotec, 1:100); rabbit monoclonal anti-CD86 (Abcam, 1:100); rabbit monoclonal anti-Ki67 (Vector Lab, VP-RM04, 1:100); rabbit monoclonal anti-p21, […], and total Stat3 (Cell Signaling Technologies, #2947, 1:100, #9145, 1:400, and #4904, 1:400, respectively). ImmPRESS peroxidase-anti-rabbit IgG (Vector Laboratories, Burlingame, Calif., USA) was used to detect primary antibodies. […] Slides were observed and photographed using an Olympus BX41 microscope and camera (Olympus America Inc, Center Valley, Pa., USA).
Female athymic, 18-20 g nude mice (nu/nu) were obtained from Charles River (Willimantic, Conn.) and housed in microisolator cages, with autoclaved bedding in a specific pathogen-free facility, with a 12-h light/dark cycle.
Xenograft tumors were established by subcutaneous injection of A375.S2 cells (2×10^6 in 100 μl of PBS, pH 7.6). When the tumors reached a volume of 50-100 mm^3, the mice were divided into a control group (n=14 treated with rabbit IgG, 40 μg by intraperitoneal injection (IP) once weekly, and 40 ug subcutaneously (SQ) around the tumor site every 3 days), and an experimental group (n=14) that received m28-RNLS (40 μg IP, once weekly, and 40 ug SQ, every 3 days). Tumor size was measured with digital calipers and volume was calculated according to the formula (length×width^2)×π/2.
At the end of the study, the mice were sacrificed, the tumors were excised and immediately snap-frozen in liquid nitrogen and stored at −80° C. Apoptosis was examined using the TUNEL assay (Roche in situ Apoptosis Detection System), according to the manufacturer's instructions. Sections were examined by light microscopy and the apoptosis index was determined by counting ≥1000 cells in 10 randomly selected high-power fields (×200 magnification).

[2] = tested on: renalase-1 and renalase-2; experiment: renalase isoform specificity of the antibodies (ELISA / hybridoma screening); type: binding, human; settings: renalase-1 vs renalase-2
Method: Peptides were used as immunogens. The peptides generated ranged from 9 to 21 amino acids and corresponded to regions of the renalase-1 and renalase-2 proteins. […] Each peptide was conjugated to the adjuvant KLH via the cysteine and used to immunize 6 rabbits. Antiserum collected from each animal was screened for anti-renalase antibody titer by ELISA assay using both the relevant peptide (BSA-conjugate) or full length renalase-1 or 2. The antisera were also tested for their ability to detect endogenous renalase in tissue lysates by western blot. Using these screening criteria the animals producing antibodies with the preferred characteristics were selected. In some examples and for some peptides, several animals produced antibodies with the required specificity. […] Polyclonal antibodies raised against all of the peptides were generated by purification of total IgG from terminal bleeds by protein G chromatography followed by further purification on peptide affinity chromatography. Further and using standard procedures, lymphocytes from the spleens of selected animals were fused to myeloma cells for hybridoma generation. The hybridoma supernatants were screened for binding to both the peptides against which they were raised and secondarily screened against whole renalase protein. Selected hybridomas were sub-cloned and expanded for antibody purification. The monoclonal antibodies were purified from conditioned hybridoma culture supernatant by protein A affinity chromatography.

[3] = tested on: PDACC (pancreatic ductal adenocarcinoma cells); experiment: PDACC viability with anti-RNLS antibodies, WST-1; type: cell-based, human; settings: 72 hrs
Method: FIG. 25, comprising FIGS. 25A through 25E, is a series of charts and images showing that inhibition of RNLS signaling is cytotoxic to cancer cells in vitro and in vivo. FIG. 25A is a chart showing relative cell viability following transient transfection of Panc1 cells using a RNLS-specific siRNA, or a non-specific control siRNA, and cell viability assayed 96 h later using the WST-1 reagent; n=6, ** indicates p<0.001. FIG. 25B is a chart showing relative cell viability when cells were treated with indicated antibodies for 72 hrs and cell viability determined using WST-1; m28-RNLS and m37-RNLS: monoclonal antibodies raised against RNLS peptide RP220, ab31291: Abcam polyclonal antibody raised against a partial sequence of RP-220; n=6, * indicates p<0.005. […] FIG. 25D is a chart showing tumor volume increase after athymic nude mice received subcutaneous injection of Panc1 cells transduced with RNLS shRNA (sh-RNLS) or control (sh-Control); tumor volume measured every […] for up to 30 days, n=6 each; * indicates p<0.05. FIG. 25E is chart showing tumor volume increase after nude mice were xenografted with BxPC3; tumor volume measured prior to treatment every 3-4 days with 2 mg/kg of either rabbit IgG as a negative control or with m28-RNLS, n=10, * indicates p<0.05.
Cell viability was assessed by trypan blue exclusion, and cells were counted using a BioRad TC10 automated counter.

[4] = immunofluorescence / western blot

B1: m28-RNLS: rabbit anti-renalase monoclonal raised against RNLS peptide RP-220; heavy chain SEQ ID NO:9, light chain SEQ ID NO:10 (antibody)
heavy: METGLRWLLLVAVLKGVQCQSVEESGGRLVTPGTPLTLTCTVSGFSLSSFAVGWVRQAPGKGLEYIGIISSVGITRYASWAAGRFTISKTSTTVDLKITSPTTEDTATYFCARYGYSGDVNRLDLWGQGTLVTVSSGQPKAPSVFPLAPCCGDTPSSTVTLGCLVKGYLPEPVTVTWNSGTLTNGVRTFPSVRQSSGLYSLSSVVSVTSSSQPVTCNVAHPATNTKVDKTVAPSTCSKPTCPPPELLGGPSVFIFPPKPKDTLMISRTPEVTCVVVDVSQDDPEVQFTWYINNEQVRTARPPLREQQFNSTIRVVSTLPIAHQDWLRGKEFKCKVHNKALPAPIEKTISKARGQPLEPKVYTMGPPREELSSRSVSLTCMINGFYPSDISVEWEKNGKAEDNYKTTPAVLDSDGSYFLYSKLSVPTSEWQRGDVFTCSVMHEALHNHYTQKSISRSPGK
light: MDTRAPTQLLGLLLLWLPGATFAQVLTQTASPVSAAVGGTVTINCQASQSVYDNNNLAWYQQKPGQPPKQLIYGASTLASGVSSRFKGSGSGTQFTLTISGVQCDDAATYYCLGEFSCSSADCFAFGGGTEVVVKGDPVAPTVLIFPPSADLVATGTVTIVCVANKYFPDVTVTWEVDGTTQTTGIENSKTPQNSADCTYNLSSTLTLTSTQYNSHKEYTCKVTQGTTSVVQSFNRGDC
modifications: 1D-28-4 full length heavy chain amino acid; 1D-28-4 full length light chain amino acid
For B1, the “CD8a mRNA expression in unfractioned tumor mass (cytotoxic T cells)” value [1] was “activates cytotoxic T cells”, the “number of CD163+ TAMs” value (A375.S2 xenograft tumors; immunofluorescence) was “considerable decrease; also recorded: decreases” and the “RNLS protein expression in tumors” value (A375.S2 xenograft tumors; [4]) was “dramatic reduction; also recorded: decreases; also recorded: marked reduction”. For the same molecule, the “total and phosphorylated STAT3 (p-Y705-STAT3) in tumors” value (A375.S2 xenograft tumors; [4]) was “significantly decreased; also recorded: marked reduction”, the “ratio of CD86+ to CD163+ TAMs” value (A375.S2 xenograft tumors; mouse, in vivo) was “increases” and the “TUNEL positive cells (apoptosis)” value (A375.S2 xenograft tumors; n=14, control 4.3±0.2) was 13.3±0.6 positive cells. The “p21 positive cells (cell cycle regulator, IHC)” value (A375.S2 xenograft tumors; n=14, control 12.2±1.0) was 24.2±2.4 positive cells, the “Ki67 positive cells (cellular proliferation marker, IHC)” value (A375.S2 xenograft tumors; n=14, control 35.1±2.3) was 13.4±3.0 positive cells/high power field and the “human (tumor) RNLS expression in tumor mass” value (A375.S2 xenograft tumors; qPCR, human specific primers) was “without affecting”. For the same molecule, the “mouse (endogenous) RNLS expression in tumor mass” value (A375.S2 xenograft tumors; qPCR, mouse specific primers) was “significant reduction”, the “toxicity (overall animal health and activity)” value (A375.S2 xenograft tumors; throughout the study) was “did not appear to be toxic” and the tumor volume (A375.S2 xenograft tumors; vs control rabbit IgG, 40 μg IP weekly and 40 ug SQ every 3 days) was “decreased tumor volume at all points tested”. The renalase-type specificity [2] was “recognize renalase-1 and renalase-2” and the “PDACC growth / viability” value [3] was “inhibitory effects”.
